According to patent US20160272693A1 (ZEALAND PHARMA A S, published 2016):
*1 amine or outer side, *2 acyl side, *3 side chain or, on linkers, in order; H or OH if unused. Bridges are numbered along the chain shown (N, C = ends). [ ]: non-standard residue; d: D form. The star is where a group is joined. Pro(trans-4-NH2) = O=C([C@@H]1C[C@@H](N[*:3])CN1[*:1])[*:2]; C20 diacid = O=C(O)CCCCCCCCCCCCCCCCCCC(=O)*; γGlu = O=C(O)[C@H](CCC(=O)[*:2])N[*:1]; Hyp = O=C(O)[C@@H]1C[C@@H](O)CN1; NMeI = CC[C@H](C)[C@H](NC)C(=O)O; Aad = N[C@@H](CCCC(=O)O)C(=O)O; Orn = NCCC[C@H](N)C(=O)O; Sar = CNCC(=O)O

T1: human amylin receptor 3 (hAMYR3), hCTR2 co-expressed with human receptor activity modifying protein 3 (hRAMP3) (human, UniProt P30988 25-474; O60896 24-148)
T1 sequence (looked up) 1: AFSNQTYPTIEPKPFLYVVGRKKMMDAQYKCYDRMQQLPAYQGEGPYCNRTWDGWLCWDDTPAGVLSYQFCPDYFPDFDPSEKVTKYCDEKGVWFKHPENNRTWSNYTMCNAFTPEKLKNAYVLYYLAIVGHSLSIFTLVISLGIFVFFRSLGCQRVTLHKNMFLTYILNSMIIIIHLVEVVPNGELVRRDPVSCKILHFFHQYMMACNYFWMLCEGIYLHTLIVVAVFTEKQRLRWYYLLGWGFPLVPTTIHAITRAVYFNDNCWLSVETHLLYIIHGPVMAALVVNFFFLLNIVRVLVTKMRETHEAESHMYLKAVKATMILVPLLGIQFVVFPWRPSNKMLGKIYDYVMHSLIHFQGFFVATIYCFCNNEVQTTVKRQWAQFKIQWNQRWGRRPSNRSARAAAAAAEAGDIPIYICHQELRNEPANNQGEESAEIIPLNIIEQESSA
T1 sequence (looked up) 2: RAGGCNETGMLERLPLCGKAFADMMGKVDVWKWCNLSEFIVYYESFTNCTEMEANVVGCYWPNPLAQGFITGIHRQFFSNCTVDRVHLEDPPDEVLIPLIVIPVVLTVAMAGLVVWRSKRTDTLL


Target: T1, human amylin receptor 3 (hAMYR3), hCTR2 …
Test: cell-based or functional assay

| hAMYR3 EC50 (nM); cAMP induction [nM] | Binder |
| --- | --- |
| 0.14 | {C20 diacid}-[γGlu]RCGTATCATERLAHFLTRSSF[Sar]A[NMeI]LSSTEVGSSTP-NH2 (disulfide 3-8; SMILES CC[C@H](C)[C@@H](C(=O)N[C@@H](CC(C)C)C(=O)N[C@@H](CO)C(=O)N[C@@H](CO)C(=O)N[C@H](C(=O)N[C@@H](CCC(=O)O)C(=O)N[C@H](C(=O)NCC(=O)N[C@@H](CO)C(=O)N[C@@H](CO)C(=O)N[C@H](C(=O)N1CCC[C@H]1C(N)=O)[C@@H](C)O)C(C)C)[C@@H](C)O)N(C)C(=O)[C@H](C)NC(=O)CN(C)C(=O)[C@H](Cc1ccccc1)NC(=O)[C@H](CO)NC(=O)[C@H](CO)NC(=O)[C@H](CCCNC(=N)N)NC(=O)[C@@H](NC(=O)[C@H](CC(C)C)NC(=O)[C@H](Cc1ccccc1)NC(=O)[C@H](Cc1c[nH]cn1)NC(=O)[C@H](C)NC(=O)[C@H](CC(C)C)NC(=O)[C@H](CCCNC(=N)N)NC(=O)[C@H](CCC(=O)O)NC(=O)[C@@H](NC(=O)[C@H](C)NC(=O)[C@@H]1CSSC[C@H](NC(=O)[C@H](CCCNC(=N)N)NC(=O)CC[C@H](NC(=O)CCCCCCCCCCCCCCCCCCC(=O)O)C(=O)O)C(=O)NCC(=O)N[C@@H]([C@@H](C)O)C(=O)N[C@@H](C)C(=O)N[C@@H]([C@@H](C)O)C(=O)N1)[C@@H](C)O)[C@@H](C)O) [[19CD]-isoGlu-R-C( )-GTAT-C( )-ATERLAHFLTRSSF-Gly(Me)-A-Ile(Me)-LSSTEVGSSTP-NH2 (Compd. 46)] |
| 0.31 | {C20 diacid}-[γGlu]RCGTATCATERLAHFLTRSSF[Sar]A[NMeI]LSSTEVGSST[Pro(trans-4-NH2)]-NH2 (disulfide 3-8; SMILES CC[C@H](C)[C@@H](C(=O)N[C@@H](CC(C)C)C(=O)N[C@@H](CO)C(=O)N[C@@H](CO)C(=O)N[C@H](C(=O)N[C@@H](CCC(=O)O)C(=O)N[C@H](C(=O)NCC(=O)N[C@@H](CO)C(=O)N[C@@H](CO)C(=O)N[C@H](C(=O)N1C[C@H](N)C[C@H]1C(N)=O)[C@@H](C)O)C(C)C)[C@@H](C)O)N(C)C(=O)[C@H](C)NC(=O)CN(C)C(=O)[C@H](Cc1ccccc1)NC(=O)[C@H](CO)NC(=O)[C@H](CO)NC(=O)[C@H](CCCNC(=N)N)NC(=O)[C@@H](NC(=O)[C@H](CC(C)C)NC(=O)[C@H](Cc1ccccc1)NC(=O)[C@H](Cc1c[nH]cn1)NC(=O)[C@H](C)NC(=O)[C@H](CC(C)C)NC(=O)[C@H](CCCNC(=N)N)NC(=O)[C@H](CCC(=O)O)NC(=O)[C@@H](NC(=O)[C@H](C)NC(=O)[C@@H]1CSSC[C@H](NC(=O)[C@H](CCCNC(=N)N)NC(=O)CC[C@H](NC(=O)CCCCCCCCCCCCCCCCCCC(=O)O)C(=O)O)C(=O)NCC(=O)N[C@@H]([C@@H](C)O)C(=O)N[C@@H](C)C(=O)N[C@@H]([C@@H](C)O)C(=O)N1)[C@@H](C)O)[C@@H](C)O) [[19CD]-isoGlu-R-C( )-GTAT-C( )-ATERLAHFLTRSSF-Gly(Me)-A-Ile(Me)-LSSTEVGSST-Apr-NH2 (Compd. 45)] |

More lines, now with the values behind:

| Binder | hAMYR3 EC50 (nM); cAMP induction [nM] |
| --- | --- |
| {C20 diacid}-[γGlu]RCGTATCATERLADFLTRSSF[Sar]A[NMeI]LSSTEVGSFT[Hyp]-NH2 (disulfide 3-8; SMILES CC[C@H](C)[C@@H](C(=O)N[C@@H](CC(C)C)C(=O)N[C@@H](CO)C(=O)N[C@@H](CO)C(=O)N[C@H](C(=O)N[C@@H](CCC(=O)O)C(=O)N[C@H](C(=O)NCC(=O)N[C@@H](CO)C(=O)N[C@@H](Cc1ccccc1)C(=O)N[C@H](C(=O)N1C[C@H](O)C[C@H]1C(N)=O)[C@@H](C)O)C(C)C)[C@@H](C)O)N(C)C(=O)[C@H](C)NC(=O)CN(C)C(=O)[C@H](Cc1ccccc1)NC(=O)[C@H](CO)NC(=O)[C@H](CO)NC(=O)[C@H](CCCNC(=N)N)NC(=O)[C@@H](NC(=O)[C@H](CC(C)C)NC(=O)[C@H](Cc1ccccc1)NC(=O)[C@H](CC(=O)O)NC(=O)[C@H](C)NC(=O)[C@H](CC(C)C)NC(=O)[C@H](CCCNC(=N)N)NC(=O)[C@H](CCC(=O)O)NC(=O)[C@@H](NC(=O)[C@H](C)NC(=O)[C@@H]1CSSC[C@H](NC(=O)[C@H](CCCNC(=N)N)NC(=O)CC[C@H](NC(=O)CCCCCCCCCCCCCCCCCCC(=O)O)C(=O)O)C(=O)NCC(=O)N[C@@H]([C@@H](C)O)C(=O)N[C@@H](C)C(=O)N[C@@H]([C@@H](C)O)C(=O)N1)[C@@H](C)O)[C@@H](C)O) [[19CD]-isoGlu-R-C( )-GTAT-C( )-ATERLADFLTRSSF-Gly(Me)-A-Ile(Me)-LSSTEVGSFT-Hyp-NH2 (Compd. 42)] | 0.34 |
| {C20 diacid}-[γGlu]RCGTATCATERLA[Aad]FLTRSSF[Sar]A[NMeI]LSSTEVGS[Orn]T[Hyp]-NH2 (disulfide 3-8; SMILES CC[C@H](C)[C@@H](C(=O)N[C@@H](CC(C)C)C(=O)N[C@@H](CO)C(=O)N[C@@H](CO)C(=O)N[C@H](C(=O)N[C@@H](CCC(=O)O)C(=O)N[C@H](C(=O)NCC(=O)N[C@@H](CO)C(=O)N[C@@H](CCCN)C(=O)N[C@H](C(=O)N1C[C@H](O)C[C@H]1C(N)=O)[C@@H](C)O)C(C)C)[C@@H](C)O)N(C)C(=O)[C@H](C)NC(=O)CN(C)C(=O)[C@H](Cc1ccccc1)NC(=O)[C@H](CO)NC(=O)[C@H](CO)NC(=O)[C@H](CCCNC(=N)N)NC(=O)[C@@H](NC(=O)[C@H](CC(C)C)NC(=O)[C@H](Cc1ccccc1)NC(=O)[C@H](CCCC(=O)O)NC(=O)[C@H](C)NC(=O)[C@H](CC(C)C)NC(=O)[C@H](CCCNC(=N)N)NC(=O)[C@H](CCC(=O)O)NC(=O)[C@@H](NC(=O)[C@H](C)NC(=O)[C@@H]1CSSC[C@H](NC(=O)[C@H](CCCNC(=N)N)NC(=O)CC[C@H](NC(=O)CCCCCCCCCCCCCCCCCCC(=O)O)C(=O)O)C(=O)NCC(=O)N[C@@H]([C@@H](C)O)C(=O)N[C@@H](C)C(=O)N[C@@H]([C@@H](C)O)C(=O)N1)[C@@H](C)O)[C@@H](C)O) | 0.3 |
| {C20 diacid}-[γGlu]RCGTATCATERLA[Aad]FLTRSSF[Sar]A[NMeI]LSSTEVGSST[Hyp]-NH2 (disulfide 3-8; SMILES CC[C@H](C)[C@@H](C(=O)N[C@@H](CC(C)C)C(=O)N[C@@H](CO)C(=O)N[C@@H](CO)C(=O)N[C@H](C(=O)N[C@@H](CCC(=O)O)C(=O)N[C@H](C(=O)NCC(=O)N[C@@H](CO)C(=O)N[C@@H](CO)C(=O)N[C@H](C(=O)N1C[C@H](O)C[C@H]1C(N)=O)[C@@H](C)O)C(C)C)[C@@H](C)O)N(C)C(=O)[C@H](C)NC(=O)CN(C)C(=O)[C@H](Cc1ccccc1)NC(=O)[C@H](CO)NC(=O)[C@H](CO)NC(=O)[C@H](CCCNC(=N)N)NC(=O)[C@@H](NC(=O)[C@H](CC(C)C)NC(=O)[C@H](Cc1ccccc1)NC(=O)[C@H](CCCC(=O)O)NC(=O)[C@H](C)NC(=O)[C@H](CC(C)C)NC(=O)[C@H](CCCNC(=N)N)NC(=O)[C@H](CCC(=O)O)NC(=O)[C@@H](NC(=O)[C@H](C)NC(=O)[C@@H]1CSSC[C@H](NC(=O)[C@H](CCCNC(=N)N)NC(=O)CC[C@H](NC(=O)CCCCCCCCCCCCCCCCCCC(=O)O)C(=O)O)C(=O)NCC(=O)N[C@@H]([C@@H](C)O)C(=O)N[C@@H](C)C(=O)N[C@@H]([C@@H](C)O)C(=O)N1)[C@@H](C)O)[C@@H](C)O) [[19CD]-isoGlu-R-C( )-GTAT-C( )-ATERLA-Aad-FLTRSSF-Gly(Me)-A-Ile(Me)-LSSTEVGSST-Hyp-NH2 (Compd. 43)] | 0.35 |
| {C20 diacid}-[γGlu]RCGTATCATERLADFLTRSSF[Sar]A[NMeI]LSSTEVGSST[Hyp]-NH2 (disulfide 3-8; SMILES CC[C@H](C)[C@@H](C(=O)N[C@@H](CC(C)C)C(=O)N[C@@H](CO)C(=O)N[C@@H](CO)C(=O)N[C@H](C(=O)N[C@@H](CCC(=O)O)C(=O)N[C@H](C(=O)NCC(=O)N[C@@H](CO)C(=O)N[C@@H](CO)C(=O)N[C@H](C(=O)N1C[C@H](O)C[C@H]1C(N)=O)[C@@H](C)O)C(C)C)[C@@H](C)O)N(C)C(=O)[C@H](C)NC(=O)CN(C)C(=O)[C@H](Cc1ccccc1)NC(=O)[C@H](CO)NC(=O)[C@H](CO)NC(=O)[C@H](CCCNC(=N)N)NC(=O)[C@@H](NC(=O)[C@H](CC(C)C)NC(=O)[C@H](Cc1ccccc1)NC(=O)[C@H](CC(=O)O)NC(=O)[C@H](C)NC(=O)[C@H](CC(C)C)NC(=O)[C@H](CCCNC(=N)N)NC(=O)[C@H](CCC(=O)O)NC(=O)[C@@H](NC(=O)[C@H](C)NC(=O)[C@@H]1CSSC[C@H](NC(=O)[C@H](CCCNC(=N)N)NC(=O)CC[C@H](NC(=O)CCCCCCCCCCCCCCCCCCC(=O)O)C(=O)O)C(=O)NCC(=O)N[C@@H]([C@@H](C)O)C(=O)N[C@@H](C)C(=O)N[C@@H]([C@@H](C)O)C(=O)N1)[C@@H](C)O)[C@@H](C)O) [[19CD]-isoGlu-R-C( )-GTAT-C( )-ATERLADFLTRSSF-Gly(Me)-A-Ile(Me)-LSSTEVGSST-Hyp-NH2 (Compd. 41)] | 0.34 |
| {C20 diacid}-[γGlu]RCGTATCATERLAHFLTRSSF[Sar]A[NMeI]LSSTEVGS[Orn]TP-NH2 (disulfide 3-8; SMILES CC[C@H](C)[C@@H](C(=O)N[C@@H](CC(C)C)C(=O)N[C@@H](CO)C(=O)N[C@@H](CO)C(=O)N[C@H](C(=O)N[C@@H](CCC(=O)O)C(=O)N[C@H](C(=O)NCC(=O)N[C@@H](CO)C(=O)N[C@@H](CCCN)C(=O)N[C@H](C(=O)N1CCC[C@H]1C(N)=O)[C@@H](C)O)C(C)C)[C@@H](C)O)N(C)C(=O)[C@H](C)NC(=O)CN(C)C(=O)[C@H](Cc1ccccc1)NC(=O)[C@H](CO)NC(=O)[C@H](CO)NC(=O)[C@H](CCCNC(=N)N)NC(=O)[C@@H](NC(=O)[C@H](CC(C)C)NC(=O)[C@H](Cc1ccccc1)NC(=O)[C@H](Cc1c[nH]cn1)NC(=O)[C@H](C)NC(=O)[C@H](CC(C)C)NC(=O)[C@H](CCCNC(=N)N)NC(=O)[C@H](CCC(=O)O)NC(=O)[C@@H](NC(=O)[C@H](C)NC(=O)[C@@H]1CSSC[C@H](NC(=O)[C@H](CCCNC(=N)N)NC(=O)CC[C@H](NC(=O)CCCCCCCCCCCCCCCCCCC(=O)O)C(=O)O)C(=O)NCC(=O)N[C@@H]([C@@H](C)O)C(=O)N[C@@H](C)C(=O)N[C@@H]([C@@H](C)O)C(=O)N1)[C@@H](C)O)[C@@H](C)O) [[19CD]-isoGlu-R-C( )-GTAT-C( )-ATERLAHFLTRSSF-Gly(Me)-A-Ile(Me)-LSSTEVGS-Orn-TP-NH2 (Compd. 47)] | 0.19 |
